The results in this text go back to publication PMC10163345 (Journal of Cell Science, 2023).

This experiment addresses T1, constitutively active truncated His-tagged WT calcineurin (6×His–CNAαWT:CNB) (human | , UniProt Q08209 1-392; P63098 1-170).
T1 construct: human CNAα (PPP3CA), truncated at residue 392, WT; calcineurin B subunit (PPP3R1, amino acids 1–170), expressed in tandem with CNAα; p11 vector (PSI:Biology-Materials Repository); held on His-tag Dynabeads in the pull-down; also called CNWT; source: E. coli BL21 (DE3), purified (Ni-NTA agarose, dialysed)
The experiment is described as follows: pull-down; 1–2 μg 6×His-tagged CN bound to His-Tag Dynabeads; 7–10 μg purified GST-tagged peptide added, 2 h at 4°C; 50 mM Tris-HCl pH 7.5, 150 mM NaCl, 0.1% Tween 20, 1 mM β-mercaptoethanol, 15 mM imidazole, 0.5 mg/ml BSA; immunoblot. The note with it: both partners purified. (In general: A western blot detects proteins with antibodies after separation by electrophoresis.)

Where no end group is shown, it is not given here.

T1 sequence (Q08209 1-392, chain 1 of 2): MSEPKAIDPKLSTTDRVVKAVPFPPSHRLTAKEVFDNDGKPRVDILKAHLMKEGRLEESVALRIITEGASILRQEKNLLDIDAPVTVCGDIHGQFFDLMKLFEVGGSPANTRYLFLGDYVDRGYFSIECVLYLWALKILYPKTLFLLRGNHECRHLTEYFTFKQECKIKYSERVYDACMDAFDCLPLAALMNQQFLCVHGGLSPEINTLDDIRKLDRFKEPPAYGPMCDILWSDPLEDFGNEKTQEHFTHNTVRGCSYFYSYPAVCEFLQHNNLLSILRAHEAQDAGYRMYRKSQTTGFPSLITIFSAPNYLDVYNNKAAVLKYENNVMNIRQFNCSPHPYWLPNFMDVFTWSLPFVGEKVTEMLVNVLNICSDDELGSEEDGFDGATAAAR
T1 sequence (P63098 whole entry, chain 2 of 2, the tested form may be a part): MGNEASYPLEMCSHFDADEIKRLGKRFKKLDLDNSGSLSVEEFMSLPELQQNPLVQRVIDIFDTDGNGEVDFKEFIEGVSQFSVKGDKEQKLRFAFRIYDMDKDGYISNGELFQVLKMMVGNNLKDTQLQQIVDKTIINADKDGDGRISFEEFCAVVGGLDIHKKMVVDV

B1: GST-tagged POC5 PxIxIT peptide (POC5 PDVRIS) (peptide)
chain: KGELVPDVRISTIHDI
modifications: also: GST-tagged
notes: 16mer of human POC5 with the PxIxIT motif PDVRIS (residues 35–40 of Q8NA72-3) in the centre; pGEX-4T-3 vector; also called WT POC5 peptide; source: E. coli BL21 (DE3), purified (Glutathione Sepharose 4B, dialysed)
In the case of B1, the binding result is on record as “binds”.
